Where two headings read alike, the source gives them in different places.
How the values were obtained:
[1] = target: T1, human PCSK9 variant a (human, UniProt Q8NBP7 31-692); experiment: ProteOn SPR, captured antibody, pH 5.8; value is the lower detection limit; pH 5.8;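 as to kon: antibodies captured on a GLC chip coated with anti-human Fc, rate constants from a 1:1 Langmuir fit of the sensorgrams, Kd derived from the fitted rates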
T1 construct: also called Human PCSK9 var A; hPCSK9a
Protocol: (§1) The SPR runs were performed using a GLC chip (Bio-Rad) immobilised with anti-human Fc antibodies. The analyte human antibodies were captured on the chip surface at 2 ug/ml. […] The chip surface was regenerated using two injections of 10 mM Glycine pH 1.5 for 160 seconds at 30 μl/min. The sensorgrams were then fitted with a 1:1 model (Langmuir kinetic model) where ka and kd are fitted and KD was calculated by the ProteOn software.

[2] = target: T1, human PCSK9 variant a; experiment: ProteOn SPR, captured antibody, pH 5.8;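 also: antibodies captured on a GLC chip coated with anti-human Fc, rate constants from a 1:1 Langmuir fit of the sensorgrams, Kd derived from the fitted rates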
Protocol: as §1

[3] = target: T2, mouse PCSK9 (mouse, UniProt Q80W65 35-694, limits assumed); experiment: ProteOn SPR, captured antibody, pH 5.8;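 also: antibodies captured on a GLC chip coated with anti-human Fc, rate constants from a 1:1 Langmuir fit of the sensorgrams, Kd derived from the fitted rates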
T2 construct: also called mPCSK9; PCSK9 mouse
T2 sequence (Q80W65 35-694 limits assumed): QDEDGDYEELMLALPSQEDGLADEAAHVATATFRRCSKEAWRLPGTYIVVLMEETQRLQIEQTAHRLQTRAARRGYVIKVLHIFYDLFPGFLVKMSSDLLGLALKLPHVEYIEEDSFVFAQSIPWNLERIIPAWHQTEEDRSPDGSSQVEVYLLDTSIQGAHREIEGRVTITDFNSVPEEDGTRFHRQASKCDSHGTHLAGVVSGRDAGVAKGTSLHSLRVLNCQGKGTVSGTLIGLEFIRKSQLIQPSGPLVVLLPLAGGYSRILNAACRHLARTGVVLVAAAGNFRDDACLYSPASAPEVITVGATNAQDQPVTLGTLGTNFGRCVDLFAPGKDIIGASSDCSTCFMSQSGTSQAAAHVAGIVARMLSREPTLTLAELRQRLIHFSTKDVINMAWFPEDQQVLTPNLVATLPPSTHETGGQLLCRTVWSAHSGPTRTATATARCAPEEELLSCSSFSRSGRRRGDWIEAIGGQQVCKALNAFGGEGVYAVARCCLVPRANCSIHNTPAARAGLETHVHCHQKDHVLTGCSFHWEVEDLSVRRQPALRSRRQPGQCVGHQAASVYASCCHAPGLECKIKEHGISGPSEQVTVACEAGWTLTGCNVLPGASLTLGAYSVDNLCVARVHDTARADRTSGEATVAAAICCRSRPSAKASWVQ
Protocol: as §1

[4] = target: T3, human PCSK9 reference (human, UniProt Q8NBP7 31-692); experiment: ProteOn SPR, captured antibody, pH 5.8;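 also: antibodies captured on a GLC chip coated with anti-human Fc, rate constants from a 1:1 Langmuir fit of the sensorgrams, Kd derived from the fitted rates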
Protocol: as §1

[5] = target: T4, cynomolgus monkey PCSK9 (cynomolgus monkey, UniProt A8T662 31-692 (Macaca nemestrina entry), limits assumed); experiment: ProteOn SPR, captured antibody, pH 5.8
T4 construct: also called Cyno PCSK9; cynoPCSK9
T4 sequence (A8T662 31-692 limits assumed): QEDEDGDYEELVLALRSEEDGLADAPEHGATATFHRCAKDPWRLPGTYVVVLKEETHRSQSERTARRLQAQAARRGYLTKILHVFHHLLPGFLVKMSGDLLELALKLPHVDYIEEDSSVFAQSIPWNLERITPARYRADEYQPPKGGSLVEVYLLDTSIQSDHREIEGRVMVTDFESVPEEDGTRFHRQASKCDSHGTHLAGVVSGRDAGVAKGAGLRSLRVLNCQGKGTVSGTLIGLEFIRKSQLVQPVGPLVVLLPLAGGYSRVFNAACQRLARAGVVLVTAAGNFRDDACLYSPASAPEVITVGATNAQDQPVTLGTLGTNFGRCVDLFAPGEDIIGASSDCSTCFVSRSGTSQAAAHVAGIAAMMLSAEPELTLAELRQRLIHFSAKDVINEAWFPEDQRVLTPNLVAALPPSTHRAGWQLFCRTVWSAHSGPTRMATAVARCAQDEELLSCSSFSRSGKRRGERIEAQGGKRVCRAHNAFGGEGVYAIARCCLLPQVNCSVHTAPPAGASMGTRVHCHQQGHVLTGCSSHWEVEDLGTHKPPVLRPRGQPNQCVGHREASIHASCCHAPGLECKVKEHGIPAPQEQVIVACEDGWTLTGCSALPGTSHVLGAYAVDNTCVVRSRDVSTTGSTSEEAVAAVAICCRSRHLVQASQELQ
Protocol: as §1

[6] = target: T5, human PCSK9 variant b (human, UniProt Q8NBP7 31-692); experiment: ProteOn SPR, captured antibody, pH 5.8
T5 construct: also called Human PCSK9 var B; hPCSK9b
Protocol: as §1

[7] = target: T6, human PCSK9 D374Y gain-of-function mutant (human, UniProt Q8NBP7 31-692); experiment: ProteOn SPR, captured antibody, pH 5.8
T6 construct: It was AF647-labelled in the HepG2 cell-based assay and unlabelled in SPR; also called Human PCSK9 GOF; hPCSK9 GOF
Protocol: as §1

[8] = target: T1, human PCSK9 variant a; experiment: ProteOn SPR, captured antibody, pH 7.6;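 also: antibodies captured via anti-human Fc on a GLC sensor chip, PCSK9 binding sensorgrams fitted to a 1:1 Langmuir model giving on and off rates, with KD derived from them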
Protocol: as §1

[9] = target: T2, mouse PCSK9; experiment: ProteOn SPR, captured antibody, pH 7.6;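 also: antibodies captured via anti-human Fc on a GLC sensor chip, PCSK9 binding sensorgrams fitted to a 1:1 Langmuir model giving on and off rates, with KD derived from them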
Protocol: as §1

[10] = target: T3, human PCSK9 reference; experiment: ProteOn SPR, captured antibody, pH 7.6;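 also: antibodies captured via anti-human Fc on a GLC sensor chip, PCSK9 binding sensorgrams fitted to a 1:1 Langmuir model giving on and off rates, with KD derived from them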
Protocol: as §1

[11] = target: T4, cynomolgus monkey PCSK9; experiment: ProteOn SPR, captured antibody, pH 7.6;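 also: antibodies captured via anti-human Fc on a GLC sensor chip, PCSK9 binding sensorgrams fitted to a 1:1 Langmuir model giving on and off rates, with KD derived from them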
Protocol: as §1

[12] = target: T5, human PCSK9 variant b; experiment: ProteOn SPR, captured antibody, pH 7.6
Protocol: as §1

[13] = target: T6, human PCSK9 D374Y gain-of-function …; experiment: ProteOn SPR, captured antibody, pH 7.6
Protocol: as §1

[14] = target: T1, human PCSK9 variant a; experiment: ProteOn SPR, captured antibody, pH 5.8; KD cannot be accurately determined
Protocol: as §1

[15] = target: T3, human PCSK9 reference; experiment: as above
Protocol: as §1

[16] = target: T5, human PCSK9 variant b; experiment: as above
Protocol: as §1

[17] = target: T6, human PCSK9 D374Y gain-of-function …; experiment: as above
Protocol: as §1

[18] = target: T3, human PCSK9 reference; experiment: ProteOn SPR, captured antibody, pH 5.8; value is the lower detection limit
Protocol: as §1

[19] = target: T5, human PCSK9 variant b; experiment: as above
Protocol: as §1

[20] = target: T6, human PCSK9 D374Y gain-of-function …; experiment: as above
Protocol: as §1

[21] = target: T6, human PCSK9 D374Y gain-of-function …; experiment: cell-based or functional assay
[22] = target: T6, human PCSK9 D374Y gain-of-function …; experiment: cell-based or functional assay; remark: listed apart in the source
[23] = target: T6, human PCSK9 D374Y gain-of-function …; experiment: cell-based or functional assay; remark: listed apart in the source
[24] = target: T6, human PCSK9 D374Y gain-of-function …; experiment: cell-based or functional assay; remark: listed apart in the source

Row | Binder | kon [2] | Kd [3] | koff [3] | kon [3] | kon [4] | Kd [5] | koff [5] | kon [5] | kon [6] | kon [7] | Kd [8] | koff [8] | kon [8] | Kd [9] | koff [9] | kon [9] | Kd [10] | koff [10] | kon [10] | Kd [11] | other results
1 | CL-148489 (antibody, V domains shown, Human antibody with a kappa light chain) VH: EVQLVESGGGLVQPGRSLRLSCTASGFTFADYVMHWVRQTPGKGLEWVSGISWNSYSINYADSVKGRFTISRDNAQNSLYLQMNSLRAEDTALYFCAKDITYDLLTGYNYNYGLDVWGQGTTVTVSS VL: DIVMTQTPLSLSVTPGQPASISCRSSQSLLHSDGKTYLYWYLQKPGQPPQLLIYEVSNRFSGVPDRFSGSGSGTDFTLKISRVEAEDVGLYYCMQSIQLPLTFGGGTKVEIK | 1.25e+06 M⁻¹ s⁻¹ | 0.46 nM | 0.000632 s⁻¹ | 1.38e+06 M⁻¹ s⁻¹ | 1.5e+06 M⁻¹ s⁻¹ | 0.0924 nM | 0.000121 s⁻¹ | 1.31e+06 M⁻¹ s⁻¹ | 1.54e+06 M⁻¹ s⁻¹ | 1.37e+06 M⁻¹ s⁻¹ | 0.175 nM | 0.000157 s⁻¹ | 894000 M⁻¹ s⁻¹ | 2.69 nM | 0.00192 s⁻¹ | 714000 M⁻¹ s⁻¹ | 0.176 nM | 0.000163 s⁻¹ | 924000 M⁻¹ s⁻¹ | 0.0506 nM | koff [1]: ≤ 1e-05 s⁻¹; koff [11]: 5.73e-05 s⁻¹; kon [11]: 1.13e+06 M⁻¹ s⁻¹; Kd [12]: 0.193 nM; koff [12]: 0.000164 s⁻¹; kon [12]: 848000 M⁻¹ s⁻¹; Kd [13]: 0.136 nM; koff [13]: 0.000129 s⁻¹; kon [13]: 947000 M⁻¹ s⁻¹; Kd [14]: < 0.008 nM; Kd [15]: < 0.00667 nM; Kd [16]: < 0.00649 nM; Kd [17]: < 0.0073 nM; koff [18]: ≤ 1e-05 s⁻¹; koff [19]: ≤ 1e-05 s⁻¹; koff [20]: ≤ 1e-05 s⁻¹
2 | CL-274698 (antibody, V domains shown, Human antibody with a kappa light chain, derived from a PCSK9 knockout mouse) VH: QVQLQESGPGLVKPSGTLSLTCAVSGGSISSSKWWSWVRQPPGKGLEWIGETHYSGSTNYNPSLKSRVTISVDKSKNQFSLKLRSVTAADTAVYYCARVGATENFWGQGTLVTVSS VL: EIVLTQSPATLSLSPGERATLSCRASQSVFRYLAWYQQKPGQAPRLLIYDASTRATDIPARFSGSGSGTDFTLTISSLEPEDFAVYYCQQRSNWPPTFGQGTKVEIK | 1.56e+06 M⁻¹ s⁻¹ | 0.103 nM | 0.000137 s⁻¹ | 1.33e+06 M⁻¹ s⁻¹ | 1.6e+06 M⁻¹ s⁻¹ | 0.0297 nM | 3.75e-05 s⁻¹ | 1.26e+06 M⁻¹ s⁻¹ | 1.6e+06 M⁻¹ s⁻¹ | 1.53e+06 M⁻¹ s⁻¹ | 0.0998 nM | 0.000136 s⁻¹ | 1.37e+06 M⁻¹ s⁻¹ | 0.273 nM | 0.000257 s⁻¹ | 941000 M⁻¹ s⁻¹ | 0.0929 nM | 0.000125 s⁻¹ | 1.35e+06 M⁻¹ s⁻¹ | 0.0984 nM | Kd [2]: 0.0309 nM; koff [2]: 4.81e-05 s⁻¹; Kd [4]: 0.0286 nM; koff [4]: 4.6e-05 s⁻¹; Kd [6]: 0.0262 nM; koff [6]: 4.19e-05 s⁻¹; Kd [7]: 0.025 nM; koff [7]: 3.83e-05 s⁻¹; koff [11]: 0.000108 s⁻¹; kon [11]: 1.1e+06 M⁻¹ s⁻¹; Kd [12]: 0.091 nM; koff [12]: 0.000127 s⁻¹; kon [12]: 1.39e+06 M⁻¹ s⁻¹; Kd [13]: 0.0689 nM; koff [13]: 8.36e-05 s⁻¹; kon [13]: 1.21e+06 M⁻¹ s⁻¹; IC50 (read off the curve) [21]: ~4 nM
3 | CL-274711 (antibody, V domains shown, Human antibody with a kappa light chain, generated by immunising a PCSK9 knockout mouse) VH: QVQLQESGPGLVKPSQTLSLTCTVSGGSISSGGYYWSWIRQHPGKGLEWIGHIFYSGSTYYNPSLKSRVTISVDTSKNQFSLKLNSVTAADTAVYYCASEGGYYDIPDVWGQGTTVTVSS VL: EIVLTQSPATLSLSPGERATLSCRASQSVSNYLAWYQQKPGQAPRLLISDASNRATGIPARFSGSGSGTDFTLTISSLEPEDFAIYYCQQRSNWPLTFGGGTKVEIK |  | 1.26 nM |  |  |  | 0.164 nM |  |  |  |  |  |  |  | 0.889 nM |  |  |  |  |  | 0.145 nM | 
4 | Alirocumab hIgG4PE (antibody, V domains shown) VH: EVQLVESGGGLVQPGGSLRLSCAASGFTFNNYAMNWVRQAPGKGLDWVSTISGSGGTTNYADSVKGRFIISRDSSKHTLYLQMNSLRAEDTAVYYCAKDSNWGNFDLWGRGTLVTVSS VL: not shown |  |  |  |  |  |  |  |  |  |  |  |  |  |  |  |  |  |  |  |  | IC50 (read off the curve) [22]: ~2 nM
5 | CL-148219 (antibody, V domains shown, NLT motif in heavy chain framework 3 confirmed N-glycosylated by mass spectrometry, Human antibody, captured through anti-human Fc in the SPR assay) VH: QVHLQESGPGLVKPSETLSLTCTVSGGSISSYYWSWIRQYPGKGLEWIGYISYSGSSNYNPSLKRRVTISRDTSKNQFSLNLTSVIAADTAVYYCARNLMIRGAYGMDVWGQGTTVTVSS VL: DTVMTQSPLSLPVTPGEPASISCRSSQSLLHSNGYNYLDWYLQKAGQSPQLLIYLGSNRASGVPDRFSGSVSGTDFTLKISRVEAEDVGIYYCMQALQTPFTFGPGTKVDIK | 908000 M⁻¹ s⁻¹ | 0.691 nM | 0.000701 s⁻¹ | 1.01e+06 M⁻¹ s⁻¹ | 1.02e+06 M⁻¹ s⁻¹ | 0.345 nM | 0.000336 s⁻¹ | 975000 M⁻¹ s⁻¹ | 918000 M⁻¹ s⁻¹ | 908000 M⁻¹ s⁻¹ | 0.216 nM | 0.000234 s⁻¹ | 1.08e+06 M⁻¹ s⁻¹ | 0.52 nM | 0.000411 s⁻¹ | 791000 M⁻¹ s⁻¹ | 0.205 nM | 0.00023 s⁻¹ | 1.13e+06 M⁻¹ s⁻¹ | 0.296 nM | IC50 (read off the curve) [23]: ~3 nM; IC50 (read off the curve) [22]: ~4 nM; Kd [2]: 0.426 nM; koff [2]: 0.000387 s⁻¹; Kd [4]: 0.368 nM; koff [4]: 0.000374 s⁻¹; Kd [6]: 0.412 nM; koff [6]: 0.000378 s⁻¹; Kd [7]: 0.431 nM; koff [7]: 0.000391 s⁻¹; koff [11]: 0.000284 s⁻¹; kon [11]: 958000 M⁻¹ s⁻¹; Kd [12]: 0.215 nM; koff [12]: 0.000225 s⁻¹; kon [12]: 1.05e+06 M⁻¹ s⁻¹; Kd [13]: 0.245 nM; koff [13]: 0.000233 s⁻¹; kon [13]: 949000 M⁻¹ s⁻¹
6 | CL-148219 QLT mutant (antibody, V domains shown) VH: QVHLQESGPGLVKPSETLSLTCTVSGGSISSYYWSWIRQYPGKGLEWIGYISYSGSSNYNPSLKRRVTISRDTSKNQFSLQLTSVIAADTAVYYCARNLMIRGAYGMDVWGQGTTVTVSS VL: DTVMTQSPLSLPVTPGEPASISCRSSQSLLHSNGYNYLDWYLQKAGQSPQLLIYLGSNRASGVPDRFSGSVSGTDFTLKISRVEAEDVGIYYCMQALQTPFTFGPGTKVDIK | 602000 M⁻¹ s⁻¹ | 1.43 nM | 0.000675 s⁻¹ | 472000 M⁻¹ s⁻¹ | 622000 M⁻¹ s⁻¹ | 0.568 nM | 0.000331 s⁻¹ | 584000 M⁻¹ s⁻¹ | 607000 M⁻¹ s⁻¹ | 606000 M⁻¹ s⁻¹ | 0.267 nM | 0.000229 s⁻¹ | 856000 M⁻¹ s⁻¹ | 0.587 nM | 0.000352 s⁻¹ | 600000 M⁻¹ s⁻¹ | 0.272 nM | 0.000226 s⁻¹ | 833000 M⁻¹ s⁻¹ | 0.352 nM | Kd [2]: 0.712 nM; koff [2]: 0.000429 s⁻¹; Kd [4]: 0.667 nM; koff [4]: 0.000415 s⁻¹; Kd [6]: 0.694 nM; koff [6]: 0.000421 s⁻¹; Kd [7]: 0.753 nM; koff [7]: 0.000456 s⁻¹; koff [11]: 0.000256 s⁻¹; kon [11]: 728000 M⁻¹ s⁻¹; Kd [12]: 0.257 nM; koff [12]: 0.000221 s⁻¹; kon [12]: 862000 M⁻¹ s⁻¹; Kd [13]: 0.303 nM; koff [13]: 0.000219 s⁻¹; kon [13]: 721000 M⁻¹ s⁻¹; IC50 (read off the curve) [24]: ~2 nM

Source: US20220049017A1 (KYMAB, published 2022)
